The record followed here is patent US20070042954A1.

Holding throughout (assay): radioreceptor assay, displacement of [125I-DTyr0]-astressin from purified sCRFR2α
Assay [1] concerns the target T1, mam sCRFR2α (mouse soluble CRF receptor type 2α, amino acids 1-143 with a FLAG epitope following amino acid 143, purified from COS M6 cell media) (mouse).
T1 chain: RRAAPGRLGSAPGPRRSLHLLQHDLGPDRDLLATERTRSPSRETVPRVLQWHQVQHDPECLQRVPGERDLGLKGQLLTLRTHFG

Assay [2] has as its target mam sCRFR2α (mouse soluble CRF receptor type 2α, amino acids 1-143 with a FLAG epitope following amino acid 143, purified from COS M6 cell media) (mouse). This is another data set of the same source.
Assay [3] addresses bact sCRFR2α (mouse soluble CRF receptor type 2α, amino acids 20-143, purified from E. coli) (mouse).

Read-outs that look alike come from different tables or passages of the source. Where no end group is shown, it is not given here.

B1: Astressin (peptide)
chain: FHLLREVLEMARAEQLAQEAHKNRKLMEII
modifications: not checked
One may read the Ki as the equilibrium dissociation constant of an inhibitor or competing ligand from its target. A low value points to a stronger hold on the target. In assay [1], B1 showed a Ki of 6.7 nM.

B2: rUcn1 (urocortin 1) (peptide, UniProt P55090 81-120, looked up)
peptide: DDPPLSIDLTFHLLRTLLELARTQSQRERAEQNRIIFDSV
In the case of B2, the Ki in assay [2] was 6.6 nM; in assay [3] it was 5.8 nM.

B3: corticotropin releasing factor (CRF) (peptide)
peptide: SEEPPISLDLTFHLLREVLEMARAEQLAQQAHSNRKLMEII
modifications: ends and bridges not checked
Consider B3, for which the inhibition constant (Ki) in assay [2] came to 23 nM; in assay [3] it was 14.8 nM.

B4: mUcn2 (urocortin 2) (peptide, UniProt Q99ML8 73-110, looked up)
peptide: VILSLDVPIGLLRILLEQARYKAARNQAATNAQILAHV
For the molecule B4, the Ki in assay [2] stood at 113 nM; in assay [3] it was 116 nM.
